± gives the uncertainty stated by the source.

This data set can be described thus: abundance fitness (aPCA) (normalised: wild type 0, dead -1); higher = more abundant; growth selection in yeast, the domain comes from the species named. As to conditions: Homo sapiens.
For “Scaffold attachment factor B1 T28W, Q15424”, the abundance fitness was -0.455 ± 0.088. With “Scaffold attachment factor B1 T28Y, Q15424”, the abundance fitness is -0.073 ± 0.068. Then “Scaffold attachment factor B1 T78A, Q15424”, with -0.345 ± 0.09; and “Scaffold attachment factor B1 T78C, Q15424”, with -0.267 ± 0.079. Then “Scaffold attachment factor B1 T78D, Q15424”, with -0.271 ± 0.086; and “Scaffold attachment factor B1 T78F, Q15424”, with -0.323 ± 0.1; and “Scaffold attachment factor B1 T78H, Q15424”, with -0.427 ± 0.096.

Substance “Scaffold attachment factor B1 T78I, Q15424” had an abundance fitness of -0.17 ± 0.069.

On to “Scaffold attachment factor B1 T78K, Q15424”, for which the abundance fitness is -0.131 ± 0.076. Substance “Scaffold attachment factor B1 T78L, Q15424” yielded an abundance fitness of -0.091 ± 0.057.

For the substance “Scaffold attachment factor B1 T78M, Q15424”, the abundance fitness is -0.356 ± 0.086. Then “Scaffold attachment factor B1 T78N, Q15424”, with -0.182 ± 0.11; and “Scaffold attachment factor B1 T78P, Q15424”, with -0.21 ± 0.071. Turning to “Scaffold attachment factor B1 T78Q, Q15424”, the abundance fitness was -0.173 ± 0.074. Take “Scaffold attachment factor B1 T78R, Q15424”: the abundance fitness was -0.123 ± 0.055. Then “Scaffold attachment factor B1 T78V, Q15424”, with -0.133 ± 0.07. “Scaffold attachment factor B1 T78W, Q15424” gave an abundance fitness of -0.279 ± 0.065. Then “Scaffold attachment factor B1 T78Y, Q15424”, with -0.173 ± 0.075; and “Scaffold attachment factor B1 V36C, Q15424”, with -0.281 ± 0.072; and “Scaffold attachment factor B1 V36D, Q15424”, with -0.125 ± 0.068. “Scaffold attachment factor B1 V36E, Q15424” came in with an abundance fitness of -0.381 ± 0.078. Turning to “Scaffold attachment factor B1 V36F, Q15424”, the abundance fitness was -0.279 ± 0.084. Turning to “Scaffold attachment factor B1 V36G, Q15424”, the abundance fitness was -0.348 ± 0.057. As to “Scaffold attachment factor B1 V36H, Q15424”, the abundance fitness is -0.409 ± 0.098. “Scaffold attachment factor B1 V36K, Q15424” had an abundance fitness of -0.19 ± 0.078. In the case of “Scaffold attachment factor B1 V36L, Q15424” it was -0.063 ± 0.053; in that of “Scaffold attachment factor B1 V36M, Q15424”, -0.031 ± 0.065. In the case of “Scaffold attachment factor B1 V36N, Q15424”, the abundance fitness was -0.275 ± 0.064. Substance “Scaffold attachment factor B1 V36P, Q15424” had an abundance fitness of -0.281 ± 0.087. As for “Scaffold attachment factor B1 V36Q, Q15424”, the abundance fitness is -0.417 ± 0.085. Consider “Scaffold attachment factor B1 V36R, Q15424”, for which the abundance fitness was -0.258 ± 0.052. Regarding “Scaffold attachment factor B1 V36T, Q15424”, the abundance fitness is -0.134 ± 0.082. In turn, “Scaffold attachment factor B1 V36W, Q15424” returned an abundance fitness of -0.37 ± 0.07. Substance “Scaffold attachment factor B1 V36Y, Q15424” registered an abundance fitness of -0.366 ± 0.072. “Scaffold attachment factor B1 V48C, Q15424”: the abundance fitness was -0.133 ± 0.07. Consider “Scaffold attachment factor B1 V48D, Q15424”, for which the abundance fitness was -0.768 ± 0.11. As to “Scaffold attachment factor B1 V48E, Q15424”, the abundance fitness is -0.231 ± 0.075. Then “Scaffold attachment factor B1 V48F, Q15424”, with -0.157 ± 0.085; and “Scaffold attachment factor B1 V48G, Q15424”, with -0.195 ± 0.057. The substance “Scaffold attachment factor B1 V48H, Q15424” gave an abundance fitness of -0.125 ± 0.08. The substance “Scaffold attachment factor B1 V48K, Q15424” showed an abundance fitness of -0.118 ± 0.095. The substance “Scaffold attachment factor B1 V48L, Q15424” showed an abundance fitness of -0.056 ± 0.065. Then “Scaffold attachment factor B1 V48M, Q15424”, with -0.083 ± 0.082; and “Scaffold attachment factor B1 V48N, Q15424”, with -0.362 ± 0.11. Turning to “Scaffold attachment factor B1 V48P, Q15424”, the abundance fitness is -0.691 ± 0.091. In the case of “Scaffold attachment factor B1 V48Q, Q15424” it was -0.388 ± 0.096. Then “Scaffold attachment factor B1 V48R, Q15424”, with -0.078 ± 0.057; and “Scaffold attachment factor B1 V48S, Q15424”, with -0.255 ± 0.059; and “Scaffold attachment factor B1 V48T, Q15424”, with -0.254 ± 0.083. In the case of “Scaffold attachment factor B1 V48W, Q15424” it was -0.281 ± 0.062. “Scaffold attachment factor B1 V56A, Q15424” yielded an abundance fitness of -0.101 ± 0.059. Then “Scaffold attachment factor B1 V56C, Q15424”, with -0.177 ± 0.095. Substance “Scaffold attachment factor B1 V56E, Q15424” yielded an abundance fitness of -0.15 ± 0.078.

In the case of “Scaffold attachment factor B1 V56F, Q15424”, the abundance fitness is -0.414 ± 0.072. In the case of “Scaffold attachment factor B1 V56G, Q15424” it was -0.305 ± 0.063. In the case of “Scaffold attachment factor B1 V56H, Q15424” it was -0.226 ± 0.076; in that of “Scaffold attachment factor B1 V56I, Q15424”, -0.126 ± 0.067.

Substance “Scaffold attachment factor B1 V56K, Q15424” came in with an abundance fitness of -0.197 ± 0.064. Then “Scaffold attachment factor B1 V56M, Q15424”, with -0.16 ± 0.07; and “Scaffold attachment factor B1 V56N, Q15424”, with -0.169 ± 0.064. In the case of “Scaffold attachment factor B1 V56Q, Q15424”, the abundance fitness is -0.249 ± 0.083. “Scaffold attachment factor B1 V56R, Q15424” showed an abundance fitness of -0.121 ± 0.054. In the case of “Scaffold attachment factor B1 V56S, Q15424” it was -0.129 ± 0.049.

Regarding “Scaffold attachment factor B1 V56T, Q15424”, the abundance fitness was -0.202 ± 0.069.

“Scaffold attachment factor B1 V56W, Q15424” returned an abundance fitness of -0.476 ± 0.052.

Substance “Scaffold attachment factor B1 V56Y, Q15424” showed an abundance fitness of -0.345 ± 0.07.
